Ends that are not written are not given here.

This experiment deals with Fn N-terminal domain fragment (Fn-NTD) (human). Description: ITC. Background: ITC needs no label: the signal is the heat of the interaction.
Sequence of Fn N-terminal domain fragment (Fn-NTD) (human) (chain, as listed by the source): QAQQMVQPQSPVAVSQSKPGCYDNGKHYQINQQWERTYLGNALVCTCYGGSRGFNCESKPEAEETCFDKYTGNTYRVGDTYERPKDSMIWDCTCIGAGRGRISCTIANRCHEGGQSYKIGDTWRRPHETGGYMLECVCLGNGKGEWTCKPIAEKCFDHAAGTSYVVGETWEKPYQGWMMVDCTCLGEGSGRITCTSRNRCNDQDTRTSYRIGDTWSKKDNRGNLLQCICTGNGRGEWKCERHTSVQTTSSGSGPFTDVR
One may read the Kd as the free concentration of one partner at which half of the binding sites on the other are occupied at equilibrium, for simple one-to-one binding. High values mean lower affinity, low ones higher affinity. In turn, NEKNGPIIQNNKFEYKEDTIKETLTGQYDKNLVTTVEEEYDS (domain or fragment, also: fused to GST carrier (carrier not in chain)) [GST-FnBPA-1] gave a Kd of 4.8 nM. Under SYQFGGHNSVDFEEDTLPKVSGQNEGQQTIEEDTTPP (domain or fragment, also: fused to GST carrier (carrier not in chain)) [GST-FnBPA-11] stands under 1 nM; under GGGQVTTESNLVEFDEESTKGIVTGAVSDHTTVEDTK (domain or fragment, also: fused to GST carrier (carrier not in chain)) [GST-FnBPA-5], 44 nM; under KYEQGGNIVDIDFDSVPQIHGQNKGNQSFEEDTEKDKP (domain or fragment, also: fused to GST carrier (carrier not in chain)) [GST-FnBPA-9], 7.3 nM.

The molecule KYEHGGNIIDIDFDSVPHIHGFNKHTEIIEEDTNKDKP (domain or fragment, also: fused to GST carrier (carrier not in chain)) [GST-FnBPA-10] had a Kd of 20 nM. This Kd is about 2.7-fold higher than that of the molecule before.

The record behind these values is article PMC4951027 (2016).
